Consider twelve molecules from patent US20170283834A1, “Processes for Producing A Fermentation Product Using A Fermenting Organism” (Novozymes A/S, priority 2014, published 2017).

The labels stand for the following.
B1: JTP211: protease variant of SEQ ID NO: 3: A27K D79L Y82F D104P A112P A126V D142L (protein, listed as Thermoascus aurantiacus)
chain: MRLVASLTALVALSVPVFPAAVNVKRASSYLEITLSQVSNTLIKAVVQNTGSDELSFVHLNFFKDPAPVKKVSVYRDGSEVQFEGILSRYKSTGLSRDAFTYLAPGESVEDVFDIASTYDLTSGGPVTIRTEGVVPYATANSTDIAGYISYSSNVLTIDVDGAAAATVSKAITPLDRRTRISSCSGSRQSALTTALRNAASLANKAADAAQSGSASKFSEYFKTTSSSTRQTVAARLRAVAREASSSSSGATTYYCLDPFGYCSSNVLAYTLPSYNIIANCPIFYTYLPPLTSTCHAQDQATTVLHEFTHAPGVYSPGTLDLAYGYQAAMGLSSSQAVMNADTYALYANAIYLGC
B2: JTP210: protease variant of SEQ ID NO: 3: A27K Y82F S87G D104P A112P A126V D142L (protein, listed as Thermoascus aurantiacus)
chain: MRLVASLTALVALSVPVFPAAVNVKRASSYLEITLSQVSNTLIKAVVQNTGSDELSFVHLNFFKDPAPVKKVSVYRDGSEVQFEGILSRYKSTGLSRDAFTYLAPGESVEDVFDIASTYDLTSGGPVTIRTEGVVPYATANSTDIAGYISYSSNVLTIDVDGAAAATVSKAITPLDRRTRISSCSGSRQSALTTALRNAASLANKAADAAQSGSASKFSEYFKTTSSSTRQTVAARLRAVAREASSSSSGATTYYCDDPFGYCSGNVLAYTLPSYNIIANCPIFYTYLPPLTSTCHAQDQATTVLHEFTHAPGVYSPGTLDLAYGYQAAMGLSSSQAVMNADTYALYANAIYLGC
B3: JTP213: protease variant of SEQ ID NO: 3: A27K Y82F D104P A112P A126V D142L (protein, listed as Thermoascus aurantiacus)
chain: MRLVASLTALVALSVPVFPAAVNVKRASSYLEITLSQVSNTLIKAVVQNTGSDELSFVHLNFFKDPAPVKKVSVYRDGSEVQFEGILSRYKSTGLSRDAFTYLAPGESVEDVFDIASTYDLTSGGPVTIRTEGVVPYATANSTDIAGYISYSSNVLTIDVDGAAAATVSKAITPLDRRTRISSCSGSRQSALTTALRNAASLANKAADAAQSGSASKFSEYFKTTSSSTRQTVAARLRAVAREASSSSSGATTYYCDDPFGYCSSNVLAYTLPSYNIIANCPIFYTYLPPLTSTCHAQDQATTVLHEFTHAPGVYSPGTLDLAYGYQAAMGLSSSQAVMNADTYALYANAIYLGC
B4: JTP146: protease variant of SEQ ID NO: 3: S50P D79L S87P A112P D142L (protein, listed as Thermoascus aurantiacus)
chain: MRLVASLTALVALSVPVFPAAVNVKRASSYLEITLSQVSNTLIKAVVQNTGSDELSFVHLNFFKDPAPVKKVSVYRDGSEVQFEGILSRYKSTGLSRDAFTYLAPGESVEDVFDIASTYDLTSGGPVTIRTEGVVPYATANSTDIAGYISYSSNVLTIDVDGAAAATVSKAITPLDRRTRISSCSGSRQSALTTALRNAASLANAAADAAQSGSASKFSEYFKTTSSPTRQTVAARLRAVAREASSSSSGATTYYCLDPYGYCSPNVLAYTLPSYNIIANCDIFYTYLPPLTSTCHAQDQATTALHEFTHAPGVYSPGTLDLAYGYQAAMGLSSSQAVMNADTYALYANAIYLGC
B5: JTP181: protease variant of SEQ ID NO: 3: D79L Y82F S87G Y97W D104P A112P D142L (protein, listed as Thermoascus aurantiacus)
chain: MRLVASLTALVALSVPVFPAAVNVKRASSYLEITLSQVSNTLIKAVVQNTGSDELSFVHLNFFKDPAPVKKVSVYRDGSEVQFEGILSRYKSTGLSRDAFTYLAPGESVEDVFDIASTYDLTSGGPVTIRTEGVVPYATANSTDIAGYISYSSNVLTIDVDGAAAATVSKAITPLDRRTRISSCSGSRQSALTTALRNAASLANAAADAAQSGSASKFSEYFKTTSSSTRQTVAARLRAVAREASSSSSGATTYYCLDPFGYCSGNVLAYTLPSWNIIANCPIFYTYLPPLTSTCHAQDQATTALHEFTHAPGVYSPGTLDLAYGYQAAMGLSSSQAVMNADTYALYANAIYLGC
B6: JTP187: protease variant of SEQ ID NO: 3: S70V D79L Y82F S87G A112P D142L (protein, listed as Thermoascus aurantiacus)
chain: MRLVASLTALVALSVPVFPAAVNVKRASSYLEITLSQVSNTLIKAVVQNTGSDELSFVHLNFFKDPAPVKKVSVYRDGSEVQFEGILSRYKSTGLSRDAFTYLAPGESVEDVFDIASTYDLTSGGPVTIRTEGVVPYATANSTDIAGYISYSSNVLTIDVDGAAAATVSKAITPLDRRTRISSCSGSRQSALTTALRNAASLANAAADAAQSGSASKFSEYFKTTSSSTRQTVAARLRAVAREASSSVSGATTYYCLDPFGYCSGNVLAYTLPSYNIIANCDIFYTYLPPLTSTCHAQDQATTALHEFTHAPGVYSPGTLDLAYGYQAAMGLSSSQAVMNADTYALYANAIYLGC
B7: JTP161: protease variant of SEQ ID NO: 3: D79L Y82F S87G A112P D142L (protein, listed as Thermoascus aurantiacus)
chain: MRLVASLTALVALSVPVFPAAVNVKRASSYLEITLSQVSNTLIKAVVQNTGSDELSFVHLNFFKDPAPVKKVSVYRDGSEVQFEGILSRYKSTGLSRDAFTYLAPGESVEDVFDIASTYDLTSGGPVTIRTEGVVPYATANSTDIAGYISYSSNVLTIDVDGAAAATVSKAITPLDRRTRISSCSGSRQSALTTALRNAASLANAAADAAQSGSASKFSEYFKTTSSSTRQTVAARLRAVAREASSSSSGATTYYCLDPFGYCSGNVLAYTLPSYNIIANCDIFYTYLPPLTSTCHAQDQATTALHEFTHAPGVYSPGTLDLAYGYQAAMGLSSSQAVMNADTYALYANAIYLGC
B8: JTP194: protease variant of SEQ ID NO: 3: Y82F S87G D79L D104P A112P A126V D142L (protein, listed as Thermoascus aurantiacus)
chain: MRLVASLTALVALSVPVFPAAVNVKRASSYLEITLSQVSNTLIKAVVQNTGSDELSFVHLNFFKDPAPVKKVSVYRDGSEVQFEGILSRYKSTGLSRDAFTYLAPGESVEDVFDIASTYDLTSGGPVTIRTEGVVPYATANSTDIAGYISYSSNVLTIDVDGAAAATVSKAITPLDRRTRISSCSGSRQSALTTALRNAASLANAAADAAQSGSASKFSEYFKTTSSSTRQTVAARLRAVAREASSSSSGATTYYCLDPFGYCSGNVLAYTLPSYNIIANCPIFYTYLPPLTSTCHAQDQATTVLHEFTHAPGVYSPGTLDLAYGYQAAMGLSSSQAVMNADTYALYANAIYLGC
B9: JTP180: protease variant of SEQ ID NO: 3: S70V D79L Y82F S87G Y97W A112P D142L (protein, listed as Thermoascus aurantiacus)
chain: MRLVASLTALVALSVPVFPAAVNVKRASSYLEITLSQVSNTLIKAVVQNTGSDELSFVHLNFFKDPAPVKKVSVYRDGSEVQFEGILSRYKSTGLSRDAFTYLAPGESVEDVFDIASTYDLTSGGPVTIRTEGVVPYATANSTDIAGYISYSSNVLTIDVDGAAAATVSKAITPLDRRTRISSCSGSRQSALTTALRNAASLANAAADAAQSGSASKFSEYFKTTSSSTRQTVAARLRAVAREASSSVSGATTYYCLDPFGYCSGNVLAYTLPSWNIIANCDIFYTYLPPLTSTCHAQDQATTALHEFTHAPGVYSPGTLDLAYGYQAAMGLSSSQAVMNADTYALYANAIYLGC
B10: JTP189: protease variant of SEQ ID NO: 3: D79L Y82F S87G A112P A126V D142L (protein, listed as Thermoascus aurantiacus)
chain: MRLVASLTALVALSVPVFPAAVNVKRASSYLEITLSQVSNTLIKAVVQNTGSDELSFVHLNFFKDPAPVKKVSVYRDGSEVQFEGILSRYKSTGLSRDAFTYLAPGESVEDVFDIASTYDLTSGGPVTIRTEGVVPYATANSTDIAGYISYSSNVLTIDVDGAAAATVSKAITPLDRRTRISSCSGSRQSALTTALRNAASLANAAADAAQSGSASKFSEYFKTTSSSTRQTVAARLRAVAREASSSSSGATTYYCLDPFGYCSGNVLAYTLPSYNIIANCDIFYTYLPPLTSTCHAQDQATTVLHEFTHAPGVYSPGTLDLAYGYQAAMGLSSSQAVMNADTYALYANAIYLGC
B11: JTP193: protease variant of SEQ ID NO: 3: Y82F S87G S70V D79L D104P A112P D142L (protein, listed as Thermoascus aurantiacus)
chain: MRLVASLTALVALSVPVFPAAVNVKRASSYLEITLSQVSNTLIKAVVQNTGSDELSFVHLNFFKDPAPVKKVSVYRDGSEVQFEGILSRYKSTGLSRDAFTYLAPGESVEDVFDIASTYDLTSGGPVTIRTEGVVPYATANSTDIAGYISYSSNVLTIDVDGAAAATVSKAITPLDRRTRISSCSGSRQSALTTALRNAASLANAAADAAQSGSASKFSEYFKTTSSSTRQTVAARLRAVAREASSSVSGATTYYCLDPFGYCSGNVLAYTLPSYNIIANCPIFYTYLPPLTSTCHAQDQATTALHEFTHAPGVYSPGTLDLAYGYQAAMGLSSSQAVMNADTYALYANAIYLGC
B12: JTP148: protease variant of SEQ ID NO: 3: D79L S87P D104P A112P D142L (protein, listed as Thermoascus aurantiacus)
chain: MRLVASLTALVALSVPVFPAAVNVKRASSYLEITLSQVSNTLIKAVVQNTGSDELSFVHLNFFKDPAPVKKVSVYRDGSEVQFEGILSRYKSTGLSRDAFTYLAPGESVEDVFDIASTYDLTSGGPVTIRTEGVVPYATANSTDIAGYISYSSNVLTIDVDGAAAATVSKAITPLDRRTRISSCSGSRQSALTTALRNAASLANAAADAAQSGSASKFSEYFKTTSSSTRQTVAARLRAVAREASSSSSGATTYYCLDPYGYCSPNVLAYTLPSYNIIANCPIFYTYLPPLTSTCHAQDQATTALHEFTHAPGVYSPGTLDLAYGYQAAMGLSSSQAVMNADTYALYANAIYLGC

The subject of one data set is zein. The data set is described as follows: Relative activity assay of protease variants (zein micro titer plate). Format: biochemical. The conditions noted are these: Table 5, lower part. The essentials:
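Relative activity is the ratio of zein clearance (A630 turbidity) at a higher versus lower temperature, e.g. 60/65 °C or 70/80 °C. Supernatants from 3-day yeast cultures applied to 0.05-0.1% zein agar in 20 mM sodium acetate pH 4.5 with zinc, incubated at least 4 h.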
Consider B1, for which the “Relative activity 75° C./70° C.” value is on record as 94% and the “Relative activity 80° C./70° C.” value came out at 44%. Consider B2, for which the “Relative activity 75° C./70° C.” value came to 107% and the “Relative activity 80° C./70° C.” value is 36%. As to B3, the “Relative activity 75° C./70° C.” value is recorded as 103% and the “Relative activity 80° C./70° C.” value stood at 37%.

The same data set, now with this note: Table 5, upper part.
With B4, the “Relative activity 75° C./70° C.” value is listed as 83% and the “Relative activity 80° C./70° C.” value is 63%. Turning to B5, the “Relative activity 80° C./70° C.” value is on record as 45%.

As for B6, the “Relative activity 80° C./70° C.” value came to 45%. With B7, the “Relative activity 80° C./70° C.” value worked out at 30% and the “Relative activity 85° C./70° C.” value is reported as 12%. On to B8, for which the “Relative activity 85° C./70° C.” value is listed as 22%. Turning to B9, the “Relative activity 80° C./70° C.” value is recorded as 52%. Regarding B10, the “Relative activity 80° C./70° C.” value stood at 46%. Regarding B11, the “Relative activity 85° C./70° C.” value is listed as 15%. B12: the “Relative activity 75° C./70° C.” value came to 76% and the “Relative activity 80° C./70° C.” value is 64%.
